Measurements taken from US20170332622A1, “COMPOSITIONS AND METHODS FOR PRESERVATION AND STORAGE OF BIOLOGICAL MATERIALS” (The University of North Carolina at Charlotte, priority 2016, published 2017).
Like-named read-outs stand apart in the source and are kept apart here.

Assays:
[1] = cited from earlier work
[2] = Thermal stability of lysozyme in TCH by differential scanning calorimetry; type: physicochemical
Experimental: TCH solutions were prepared, water was added, and the water content was measured using Karl Fischer titration until the desired solutions were achieved. Lysozyme was weighed into the container and the appropriate amount of TCH was added to achieve a solution with a concentration of approximately 1 mg/mL. Samples were gently inverted several times and left at room temperature for one hour or overnight to allow the lysozyme to rehydrate and go into solution. Some samples were dried by evaporative drying and rehydrated prior to scanning Another sample of lysozyme in 0.1M sodium acetate buffer pH 4 was prepared for comparison.
To determine the stability of lysozyme in TCH over time, a set of samples was prepared at stable moisture contents and stored at the appropriate humidity at room temperature for a period of five weeks. These samples were prepared with a protein concentration of 10 mg/mL prior to storage. After five weeks, they were diluted to approximately 1 mg/mL and scanned using differential scanning calorimetry (DSC).
A Micro-cal VP DSC was used for determining the thermal stability of the protein. A baseline was established by scanning the TCH solution without protein at least three times until repeatability was evident. The TCH solutions used for the baseline scans are identical to the sample solutions, without protein. The baseline scans of the solutions without protein help eliminate noise resultant from variation in the sample cells. […] The concentration of lysozyme in each sample was verified prior to scanning by reading the absorbance at 280 nm on the Biotek Synergy plate reader. […]
The DSC thermal traces were fit in OriginPro with a non-two-state model that includes an output of both calorimetric enthalpy and Van't Hoff enthalpy, Hv. The calorimetric enthalpy is determined by the area under the curve and depends on the selected baseline as well as the normalized concentration. […] The number of intermediate steps in the unfolding process can be determined by taking the ratio of calorimetric enthalpy to Van't Hoff enthalpy. […]

[3] = in NaH2PO4; cited from earlier work
[4] = Solubility of lysozyme by turbidimetric assay (absorbance at 600 nm); type: physicochemical
Experimental: Initial solubility studies were performed on the model protein lysozyme in water. Samples having known concentrations were prepared by weighing the lysozyme and adding the appropriate amount of water to get the desired concentration in mg/mL. The samples were gently inverted several times and stored at room temperature for 1 hour to overnight to allow the protein to rehydrate. Solubility limits were determined via turbidimetric assay.
The samples were then placed in a Biotek Synergy plate reader and absorbance was measured from 200 nm to 900 nm. As FIG. 1 illustrates, lysozyme has a characteristic […] at 280 nm that can be used along with Beer-Lambert's law to measure the concentration, however, for samples above 5 mg/mL, the instrument sensor becomes saturated and the readings are not useful for determining concentration. Therefore, to determine solubility limits, the absorbance at 600 nm was used to indicate the presence of aggregate or particulate in suspension. At this wavelength, far from the characteristic absorbance, any increase in absorbance is an indicator that the protein is not completely in solution. A baseline was established by measuring the absorbance of pure water or TCH solution without any lysozyme. Samples were measured in triplicate and the averages are plotted in the accompanying figures.
To determine the effect of TCH on the solubility of lysozyme, values for the solubility of lysozyme in TCH formulations as a function of water content were obtained. […] There is a characteristic peak proximate 280 nm that can be used can be used along with Beer-Lambert's law to determine concentrations, however, the spectra is near zero away from this peak.

Compound	solubility limit ([1]; 10° C.)	solubility limit ([1]; 20° C.)	water content corresponding to solubility limit ([1]; 20° C.)	solubility limit ([1]; 40° C.)	solubility limit, as water content ([1]; pure trehalose)	degradation after storage ([2]; five weeks of storage in stable TCH solutions, moisture content and/or humidity controlled, room temperature)	thermal unfolding temperature, stored versus fresh samples ([2]; stored five weeks in TCH, DSC)	thermal unfolding temperature ([2]; versus weight percent of TCH in solution, DSC)	ratio of calorimetric to Van't Hoff enthalpies [3]	solubility ([4]; in TCH 1:4 compositions, all water content levels tested (0.01 to 0.70 grams water per gram dry weight))	solubility (in words) ([4]; in TCH solutions)	solubility (no indication of solubility issues up to maximum concentration tested) ([4]; in pure water)	absorbance at 600 nm ([4]; lysozyme in TCH solutions, each sample measured)
OC[C@H]1O[C@H](O[C@H]2O[C@H](CO)[C@@H](O)[C@H](O)[C@H]2O)[C@H](O)[C@@H](O)[C@@H]1O [trehalose]	42.3 % (grams trehalose per gram solution)	46.6 % (grams trehalose per gram solution)	53.4 % (grams water per gram solution)	59.7 % (grams trehalose per gram solution)	53 % water by weight								
lysozyme						no sign of degradation	slightly higher unfolding temperature	increases with increasing concentrations of TCH	~1	at least 40 mg/mL	readily soluble	≥ 200 mg/mL	below 0.05
